Series [1] concerns CovR (non-phosphorylated) (Streptococcus pyogenes (M1T1 5448?; locus numbering MGAS5005)). The experiment in a line: EMSA. A general note: A gel shift assay detects complexes by their altered migration in electrophoresis.
Series [2] has as its system CovR-P (SP-TyK-phosphorylated) (Streptococcus pyogenes (M1T1 5448?; locus numbering MGAS5005)). The experiment in a line: EMSA.

Consider one substance from article PMC8689070.

In the case of PcovR, the binding signal (fold of CovR-P binding) in series [1] stood at 0.25. In series [2], this substance registered a binding signal (fold vs non-phosphorylated CovR) of 4.
